Test results from US8642834B2, “Methods for the identification of agents that inhibit mesenchymal-like tumor cells or their formation” (OSI Pharmaceuticals, LLC, priority 2009, dated 2014).

What was measured:
[1] = tested on: CFPAC1 cells; assay: Transcriptional changes to EMT genes, qPCR; format: cell-based, human
Description: The CFPAC1 cell line was cultured in DMEM media (Gibco #11960) supplemented with 10% FBS (Sigma), 2 mM L Glutamine (Gibco), at 37° C., 5% CO2. For 7 day treatments, cells were seeded on tissue culture plastic in complete growth media and allowed to attach overnight at cell densities that would provide approximately 60-80% confluence at end of experiment. Ligand and/or inhibitor was added the following day (Day 0) in complete growth media and incubated at 37° C., 5% CO2. Ligand source and concentrations used are as follows: [1] From R&D systems, SDF-1α (stromal derived factor-1 alpha) at 100 ng/ml, TRANCE (TNF-related activation induced cytokine) at 50 ng/ml, FGF1 (fibroblast growth factor acidic) at 10 ng/ml, FGF2 (fibroblast growth factor basic) at 10 ng/ml, BMP4 (bone morphogenetic protein 4) at 100 ng/ml, BMP7 (bone morphogenetic protein 7) at 100 ng/ml, IGF2 (insulin-like growth factor 2) at 100 ng/ml, OSM (Oncostatin M) at 100 ng/ml, NRG1 (Neuregulin-1) at 50 ng/ml, PDGFaa (Platelet derived growth factor a) at 50 ng/ml, PDGFbb (platelet derive growth factor b) at 30 ng/ml, Ang2 (Angiopoeitin 2) at 400 ng/ml, amphiregulin at 100 ng/ml, HMGB 1 (Human high-mobility group box 1 protein) at 50 ng/ml; [2] From Genscript, LIF (Leukemia inhibitory factor) at 20 ng/ml, GM-CSF (Granulocyte macrophage colony stimulating factor) at 25 ng/ml, M-CSF (Macrophage colony stimulating factor) at 50 ng/ml; [3] From Anaspec, PAR1 (Protease activated receptor 1 agonist) at 100 μM; PAR2 (Protease activated receptor 2 agonist; peptide SLIGKV-NH2, Cat. No. 60217-1) at 100 μM; PAR4 (Protease activated receptor […] agonist; peptide AYPGKF-NH2, Cat. No. 60218-1) at 100 μM; [4] From Peprotech, HGF (Hepatocyte Growth Factor) at 100 ng/ml; IL-31 (Interleukin-31) at 50 ng/ml, IL-33 (Interleukin-33) at 50 ng/ml, IL1-a (Interleukin-1 alpha) at 10 ng/ml, CTGF (Connective tissue growth factor) at 20 ng/ml, WISP1 (Wnt-1 inducible signaling pathway protein) at 20 ng/ml, PTHrP ([…] hormone-related protein) at 50 ng/ml, MCP1 (monocyte chemotactic protein-1) at 50 ng/ml; and [5] from Sigma, Fulvestrant at 1 μM. Fresh medium containing ligand and/or inhibitor was added 3-4 days after initial dose, and at Day 7 cells were harvested for western blot analysis.
Cells were plated and treated with ligand for one or 7 days. At the time of harvest, cells were trypsinized and snap frozen for later use. Total RNA was isolated using RNAqueous-4 PCR Kit (Ambion, AM1914). For qPCR on tumor material, the tumor samples were homogenized using a small tissue homogenizer (Ultra-Turrax T8 from IKA-Werke) in 175ul RNA lysis buffer. Homogenization was for 1 minute on ice. RNA was isolated using the SV Total RNA Isolation System (Promega Cat #Z3100) according to the manufactures instructions. Samples were DNase treated using the Turbo DNA-Free kit (Ambion, AM1907) and reverse transcribed using Superscript III (Invitrogen, 18080-044) for qPCR analysis. Taqman primers and Locked-Nucleic Acid probes were designed using ProbeFinder software (Universal Probe library, Roche). For mRNA analysis, real time PCR was performed using the ABI 7900HT series PCR machine. Thermocycle conditions were as follows: 50° C. for 2 minutes, 95° C. for 10 minutes, 95° C. for 15 seconds, 50° C. for 10 seconds, 60° C. for 1 minute. Data was collected over 45 cycles and then normalized to GAPDH and further normalized to the untreated control sample.

[2] = tested on: CFPAC-1 cells; assay: Cell morphology by light microscopy; format: cell-based, human; details: treated 7 days; versus untreated cells that formed colonies
Description: The CFPAC1 cell line was cultured in DMEM media (Gibco #11960) supplemented with 10% FBS (Sigma), 2 mM L Glutamine (Gibco), at 37° C., 5% CO2. For 7 day treatments, cells were seeded on tissue culture plastic in complete growth media and allowed to attach overnight at cell densities that would provide approximately 60-80% confluence at end of experiment. Ligand and/or inhibitor was added the following day (Day 0) in complete growth media and incubated at 37° C., 5% CO2. Ligand source and concentrations used are as follows: [1] From R&D systems, SDF-1α (stromal derived factor-1 alpha) at 100 ng/ml, TRANCE (TNF-related activation induced cytokine) at 50 ng/ml, FGF1 (fibroblast growth factor acidic) at 10 ng/ml, FGF2 (fibroblast growth factor basic) at 10 ng/ml, BMP4 (bone morphogenetic protein 4) at 100 ng/ml, BMP7 (bone morphogenetic protein 7) at 100 ng/ml, IGF2 (insulin-like growth factor 2) at 100 ng/ml, OSM (Oncostatin M) at 100 ng/ml, NRG1 (Neuregulin-1) at 50 ng/ml, PDGFaa (Platelet derived growth factor a) at 50 ng/ml, PDGFbb (platelet derive growth factor b) at 30 ng/ml, Ang2 (Angiopoeitin 2) at 400 ng/ml, amphiregulin at 100 ng/ml, HMGB 1 (Human high-mobility group box 1 protein) at 50 ng/ml; [2] […]

B1: OSM: Oncostatin M from R&D systems, used at 100 ng/ml (protein, UniProt P13725 26-221, looked up)
Oncostatin-M: AAIGSCSKEYRVLLGQLQKQTDLMQDTSRLLDPYIRIQGLDVPKLREHCRERPGAFPSEETLRGLGRRGFLQTLNATLGCVLHRLADLEQRLPKAQDLERSGLNIEDLEKLQMARPNILGLRNNIYCMAQLLDNSDTAEPTKAGRGASQPPTPTPASDAFQRKLEGCRFLHGYHRFMHSVGRVFSKWGESPNRSRR
ACTN1 mRNA fold change ([1]; ligand 1 Day): NC (Only changes greater than 3 fold are reported. NC indicates no change.)
CDH1 mRNA fold change ([1]; ligand 1 Day): NC (Only changes greater than 3 fold are reported. NC indicates no change.)
CDH2 mRNA fold change ([1]; ligand 1 Day): NC (Only changes greater than 3 fold are reported. NC indicates no change.)
ITGB3 mRNA fold change ([1]; ligand 1 Day): 31.39 fold
MMP7 mRNA fold change ([1]; ligand 1 Day): NC (Only changes greater than 3 fold are reported. NC indicates no change.)
MTA3 mRNA fold change ([1]; ligand 1 Day): NC (Only changes greater than 3 fold are reported. NC indicates no change.)
PLAUR mRNA fold change ([1]; ligand 1 Day): NC (Only changes greater than 3 fold are reported. NC indicates no change.)
SNAI1 mRNA fold change ([1]; ligand 1 Day): NC (Only changes greater than 3 fold are reported. NC indicates no change.)
SNAI2 mRNA fold change ([1]; ligand 1 Day): NC (Only changes greater than 3 fold are reported. NC indicates no change.)
SPARC mRNA fold change ([1]; ligand 1 Day): NC (Only changes greater than 3 fold are reported. NC indicates no change.)
TWIST1 mRNA fold change ([1]; ligand 1 Day): NC (Only changes greater than 3 fold are reported. NC indicates no change.)
VIM mRNA fold change ([1]; ligand 1 Day): NC (Only changes greater than 3 fold are reported. NC indicates no change.)
ZEB1 mRNA fold change ([1]; ligand 1 Day): NC (Only changes greater than 3 fold are reported. NC indicates no change.)
ZEB2 mRNA fold change ([1]; ligand 1 Day): 3.52 fold
ACTN1 mRNA fold change ([1]; ligand 7 Day): NC (Only changes greater than 3 fold are reported. NC indicates no change.)
CDH1 mRNA fold change ([1]; ligand 7 Day): −3.06 fold
CDH2 mRNA fold change ([1]; ligand 7 Day): NC (Only changes greater than 3 fold are reported. NC indicates no change.)
ITGB3 mRNA fold change ([1]; ligand 7 Day): 106.2 fold
MMP7 mRNA fold change ([1]; ligand 7 Day): NC (Only changes greater than 3 fold are reported. NC indicates no change.)
MTA3 mRNA fold change ([1]; ligand 7 Day): NC (Only changes greater than 3 fold are reported. NC indicates no change.)
PLAUR mRNA fold change ([1]; ligand 7 Day): NC (Only changes greater than 3 fold are reported. NC indicates no change.)
SNAI1 mRNA fold change ([1]; ligand 7 Day): NC (Only changes greater than 3 fold are reported. NC indicates no change.)
SNAI2 mRNA fold change ([1]; ligand 7 Day): NC (Only changes greater than 3 fold are reported. NC indicates no change.)
SPARC mRNA fold change ([1]; ligand 7 Day): −33 fold
TWIST1 mRNA fold change ([1]; ligand 7 Day): 3.3 fold
VIM mRNA fold change ([1]; ligand 7 Day): NC (Only changes greater than 3 fold are reported. NC indicates no change.)
ZEB1 mRNA fold change ([1]; ligand 7 Day): 3.00 fold
ZEB2 mRNA fold change ([1]; ligand 7 Day): 13.7 fold
Cell morphology [2]: less compact with more elongated cell morphology
